Consider 1 molecule from patent US20050054822A1 (published 2005).

The experiment concerns the target T1, human MARCO (macrophage receptor with a collagenous structure) (human, UniProt Q9UEW3 1-520).
T1 construct: also called HIN-2 receptor
T1 sequence: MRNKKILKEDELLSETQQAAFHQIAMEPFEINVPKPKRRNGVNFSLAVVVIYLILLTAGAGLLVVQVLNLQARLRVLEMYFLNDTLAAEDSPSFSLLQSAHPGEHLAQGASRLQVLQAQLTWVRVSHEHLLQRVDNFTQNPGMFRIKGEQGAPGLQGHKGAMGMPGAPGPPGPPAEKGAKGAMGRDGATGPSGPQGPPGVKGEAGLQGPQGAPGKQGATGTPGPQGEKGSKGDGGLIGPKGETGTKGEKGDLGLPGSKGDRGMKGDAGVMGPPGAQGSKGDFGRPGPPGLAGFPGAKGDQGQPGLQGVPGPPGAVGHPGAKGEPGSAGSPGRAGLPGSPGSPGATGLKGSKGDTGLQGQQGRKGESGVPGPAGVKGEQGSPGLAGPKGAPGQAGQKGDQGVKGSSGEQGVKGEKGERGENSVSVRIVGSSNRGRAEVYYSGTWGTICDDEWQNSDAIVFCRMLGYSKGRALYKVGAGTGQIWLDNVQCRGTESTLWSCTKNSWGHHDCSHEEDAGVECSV
Briefly: staining of retrovirally transduced U937 cells with FLAG-HIN-2. The source says: cDNA for both MARCO and SP-C were subcloned into the MSCV-IRES retroviral vector, which contains an IRES element followed by the gene encoding green fluorescent protein (GFP). Briefly, for MARCO, full length cDNA fragment encoding MARCO was amplified by PCR from the single MARCO expression cell clone cDNA with two primers from the human lung retroviral cDNA library (Strategene). The amplified cDNA fragment was digested with Sal I and Not I and cloned into the Xho I and Not I site of MSCV-GFP plasmid and PRK plasmids to make MSCV-MARCO and PRK-MARCO. SP-C cDNA was similarly prepared. Viruses were produced and used to infect U937 cells, and the infected cells were stained with FLAG-HIN-2. The FLAG-HIN-2 specifically stained the U937 cell line transduced with retroviruses encoding the MARCO, but no staining was detected on uninfected, MSCV-empty vector infected, or SP-C infected cells (data not shown).

B1: FLAG-HIN-2 (mature human HIN-2 with a carboxy-terminal Flag tag, secreted from 293 cells) (ligand)
chain: FLINKVPLPVDKLAPLPLDNILPFMDPLKLLLKTLGISVEHLVEGLRKCVNELGPEASEAVKKLLEALSHLV
notes: also called HIN-2-FLAG; UGRP1; not shown: C-terminal Flag tag from the PRK-C-FLAG vector; The tagged mature protein is stated to be 86 amino acids, so 14 residues
Turning to B1, the binding result is recorded as “binds”.
